Consider two proteins from patent US11925667B2, “Engineered therapeutic probiotic system and method” (priority 2018, dated 2024).

The term Km denotes the concentration of substrate that gives half-maximal velocity.

Substrate in series [1]: C=CC/C(=N/OS(=O)(=O)O)S[C@@H]1O[C@H](CO)[C@@H](O)[C@H](O)[C@H]1O
The series can be described thus: Myrosinase activity assay (glucose release from sinigrin hydrolysis), BMY1. The class given is biochemical, Brevicoryne brassicae. As to the method: Screening for improved β-thioglucosidase. The activity and stability of myrosinase, a β-thioglucosidase that hydrolyzes glucosinolate to sulforaphane, varies at differing pH and temperature; in a preferred embodiment the selected enzyme needs to function under physiological colorectal conditions. The healthy colon pH averages 6.6, while it is 7.0 and 6.7 in patients with adenoma and carcinoma, respectively. In addition, the temperature of the human intestinal tract ranges from 36° C. to 40° C. depending on the individual's metabolic state. In the illustrative example five plant-derived myrosinase orthologues with minimal glycosylation sites and the absence of the co-factor-binding sites using the BLAST search and the Enzyme Function Initiative-Enzyme Similarity Tool (EFI-EST), are compared to the well-characterized myrosinases from Brevicoryne brassicae (BMY1) and Arabidopsis thaliana (TGG1) (FIG. 2a and FIG. 7).
(§1) Gene cloning, protein expression and purification. Myrosinase genes are optimized for E. coli expression and cloned into the pET28b expression vector. The plasmids are transformed into E. coli BL21 (DE3) cultured in lysogeny broth (LB) (BD, Le Pont de Claix, France) at 37° C., 225 rpm to OD600 0.6 followed by 0.5 mM isopropyl β-D-1-thiogalactopyranoside (IPTG) induction at 16° C., 180 rpm for 16 hours. Cells are harvested, resuspended in lysis buffer (50 mM Tris-Cl, 300 mM NaCl, 10% glycerol, 1 mM dithiothreitol [DTT], pH 8.0) and lysed using Emulsiflex C-3 (Avestin). Expressed myrosinases are purified by IMAC Ni-NTA purification followed by Hi-Load Superdex 200 size exclusion column chromatography (GE, Uppsala, Sweden). The purified protein is concentrated and stored at −80° C. Pilot scale protein purification and enzymatic assay is conducted.
(§2) Myrosinase screening assay. The enzymatic reaction is measured for the release of glucose resulting from sinigrin hydrolysis. The reaction is conducted in sodium phosphate-buffered solution supplied in the Amplex® Red Glucose/Glucose Oxidase Assay Kit (Thermo Fisher Scientific, Geel, Belgium). The reaction buffer is prepared at different pH values (6.0, 6.5, 7.4 and 8.0) and at different reaction temperatures (34° C., 37° C., and 40° C.). The reaction is prepared using 0.1 μM purified myrosinase added to 1× Amplex® Red Glucose Assay reaction mixture and was kick-started with the corresponding concentration of sinigrin. The reaction can be measured at 560 nm absorbance and fluorescence (λex=540 nm, λem=590 nm) using a Synergy H1 Multi-Mode microtiter plate reader (BioTek®, Winooski, USA). The reaction initial velocity (VO) is determined and fitted into a Michaelis-Menten curve. Vmax and KM are determined by fitting into the Michaelis-Menten equation (Eq. 1) using GraphPad Prism Software. ^v=Vmax*[Sinigrin]/(KM+[Sinigrin]) (Eq.1)
(§3) Table S1|Myrosinase activity assay screening under various pH and temperature conditions (n=3 independent experiments, each measurement performed in triplicates; mean[…].).

Substrate in series [2]: C=CC/C(=N/OS(=O)(=O)O)S[C@@H]1O[C@H](CO)[C@@H](O)[C@H](O)[C@H]1O
The series can be described thus: Myrosinase activity assay (glucose release from sinigrin hydrolysis), I1. The class given is biochemical, Armoracia rusticana.
Description: In a preferred embodiment, the myrosinases derived from Armoracia rusticana (I1) and Brassica oleacea (A6) have a better stability and catalytic efficiency in various temperatures and pH values when compared with those derived from BMY1 and TGG1 (Table 1). In a preferred illustrative embodiment I1 myrosinase is selected owing to its Km value and improved kcat at the colorectal ambient temperature and pH (FIG. 2c, 2d and Table 1). By comparing the modeled-I1 myrosinase protein structure against that of the BMY1 myrosinase, the critical side chain residues involved in glucose-ring recognition and the glutamic acid that served as a nucleophile during catalysis are conserved. According to the claimed invention the improved catalytic efficiency of the I1 myrosinase is correlated to its pI value (pI=7.90) and the overall positively charged surface (FIG. 8) that contributes to better structural stability.
as §1, §2, §3

Setting [3] is: other: pH 6.0, 37° C., pH 6.0, 37.0 °C.
Setting [4] is: other: pH 6.5, 37° C., pH 6.5, 37.0 °C.
Setting [5] is: other: pH 7.4, 34° C., pH 7.4, 34.0 °C.
Setting [6] is: other: pH 7.4, 37° C., pH 7.4, 37.0 °C.
The mark [7] stands for this setting: other: pH 7.4, 40° C., pH 7.4, 40.0 °C.
[8] abbreviates: other: pH 8.0, 37° C., pH 8.0, 37.0 °C.

B1: Brevicoryne brassicae myrosinase BMY1 (Brevicoryne brassicae) (protein)
chain: MDYKFPKDFMFGTSTASYQIEGGWNEDGKGENIWDRLVHTSPEVIKDGTNGDIACDSYHKYKEDVAIIKDLNLKFYRFSISWARIAPSGVMNSLEPKGIAYYNNLINELIKNDIIPLVTMYHWDLPQYLQDLGGWVNPIMSDYFKEYARVLFTYFGDRVKWWITFNEPIAVCKGYSIKAYAPNLNLKTTGHYLAGHTQLIAHGKAYRLYEEMFKPTQNGKISISISGVFFMPKNAESDDDIETAERANQFERGWFGHPVYKGDYPPIMKKWVDQKSKEEGLPWSKLPKFTKDEIKLLKGTADFYALNHYSSRLVTFGSDPNPNFNPDASYVTSVDEAWLKPNETPYIIPVPEGLRKLLIWLKNEYGNPQLLITENGYGDDGQLDDFEKISYLKNYLNATLQAMYEDKCNVIGYTVWSLLDNFEWFYGYSIHFGLVKIDFNDPQRTRTKRESYTYFKNVVSTGKP
In the case of B1, the Michaelis-Menten constant (Km) came out at 153 ± 17 µM in series [1] (setting [3]); 399 ± 86 µM in series [1] (setting [4]); 76 ± 6 µM in series [1] (setting [5]); 67 ± 1 µM in series [1] (setting [6]); 342 ± 67 µM in series [1] (setting [7]); 217 ± 87 µM in series [1] (setting [8]).

B2: Armoracia rusticana myrosinase I1, SEQ ID NO: 6 (Armoracia rusticana) (protein)
chain: QNVCNPACKAKEPFNCDNTLTFNQTGFPKNFTFGAATSAYQIEGAAHRALNGWDYFTHRYPEKVPDRSSGDLACDSYDLYKDDVKLLKRMNVQAYRLSIAWSRVLPKGRLIGGVDENGITYYNNLINELKANGIEPYVTIFHWDVPQTLEDEYGGFLSPRIVEDFTNFAELLFQRFGDRVKFWITLNQPYSLATKGYGDGSYPPGRCTDCEFGGDSGTEPYIVAHHQLLAHAETVSLYRKRYQKFQGGKIGTTLIGRWFQPLNQTSNLDKAAAKRAFDFFVGWFLDPLVYGEYPKIMKEMVGDRMPKFTPQESDLVKGSLDFLGLNYYVTQYATDAPPSIPTQPSAITDPRVTLGYYRNGIPIGVQAASFVYYPTGFRQILNHIKDNYKNPLTYITENGVADFGNLTLANALADIGRIQNHCSHLSCLKCAIADGCNVGGYFAWSFMDNYEFGNGYTLRFGMNWVNFTNPADRKQKDSGKWFSKFLAK
notes: elsewhere used as YebF-I1 fusion
Take B2: the Michaelis-Menten constant (Km) in series [2] (setting [3]) was 192 ± 40 µM; in series [2] (setting [4]), 183 ± 19 µM; in series [2] (setting [5]), 49 ± 4 µM; in series [2] (setting [6]), 87 ± 7 µM; in series [2] (setting [7]), 87 ± 9 µM; in series [2] (setting [8]) it was 192 ± 17 µM.
